Data as given in the Human Domainome abundance scans (Beltran et al. 2025).
± gives the uncertainty stated by the source.

B1: Androgen receptor, residues 557 to 632; numbered along this chain, P10275 (parent)
chain: QKTCLICGDEASGCHYGALTCGSCKVFFKRAAEGKQKYLCASRNDCTIDKFRRKNCPSCRLRKCYEAGMTLGARKL

Variants of: B1
Experiment: abundance fitness (aPCA) (normalised: wild type 0, dead -1); higher = more abundant; growth selection in yeast, the domain comes from the species named
Settings: Homo sapiens

Row | Variant | abundance fitness
1 | QKTCLICGDEASGCHYGALTCGSCKVFFKRAAEGKQKALCASRNDCTIDKFRRKNCPSCRLRKCYEAGMTLGARKL [Y38A] | -0.057 ± 0.067
2 | QKTCLICGDEASGCHYGALTCGSCKVFFKRAAEGKQKDLCASRNDCTIDKFRRKNCPSCRLRKCYEAGMTLGARKL [Y38D] | -0.059 ± 0.094
3 | QKTCLICGDEASGCHYGALTCGSCKVFFKRAAEGKQKWLCASRNDCTIDKFRRKNCPSCRLRKCYEAGMTLGARKL [Y38W] | -0.239 ± 0.11
4 | QKTCLICGDEASGCHYGALTCGSCKVFFKRAAEGKQKQLCASRNDCTIDKFRRKNCPSCRLRKCYEAGMTLGARKL [Y38Q] | -0.072 ± 0.086
5 | QKTCLICGDEASGCHYGALTCGSCKVFFKRAAEGKQKELCASRNDCTIDKFRRKNCPSCRLRKCYEAGMTLGARKL [Y38E] | -0.064 ± 0.083
6 | QKTCLICGDEASGCHYGALTCGSCKVFFKRAAEGKQKFLCASRNDCTIDKFRRKNCPSCRLRKCYEAGMTLGARKL [Y38F] | -0.097 ± 0.093
7 | QKTCLICGDEASGCHYGALTCGSCKVFFKRAAEGKQKKLCASRNDCTIDKFRRKNCPSCRLRKCYEAGMTLGARKL [Y38K] | -0.085 ± 0.099
8 | QKTCLICGDEASGCHYGALTCGSCKVFFKRAAEGKQKMLCASRNDCTIDKFRRKNCPSCRLRKCYEAGMTLGARKL [Y38M] | -0.036 ± 0.09
9 | QKTCLICGDEASGCHYGALTCGSCKVFFKRAAEGKQKCLCASRNDCTIDKFRRKNCPSCRLRKCYEAGMTLGARKL [Y38C] | -0.305 ± 0.11
10 | QKTCLICGDEASGCHYGALTCGSCKVFFKRAAEGKQKTLCASRNDCTIDKFRRKNCPSCRLRKCYEAGMTLGARKL [Y38T] | -0.179 ± 0.08
11 | QKTCLICGDEASGCHYGALTCGSCKVFFKRAAEGKQKNLCASRNDCTIDKFRRKNCPSCRLRKCYEAGMTLGARKL [Y38N] | -0.245 ± 0.094
12 | QKTCLICGDEASGCHYGALTCGSCKVFFKRAAEGKQKILCASRNDCTIDKFRRKNCPSCRLRKCYEAGMTLGARKL [Y38I] | 0.111 ± 0.1
13 | QKTCLICGDEASGCHYGALTCGSCKVFFKRAAEGKQKPLCASRNDCTIDKFRRKNCPSCRLRKCYEAGMTLGARKL [Y38P] | -0.007 ± 0.063
14 | QKTCLICGDEASGCHYGALTCGSCKVFFKRAAEGKQKHLCASRNDCTIDKFRRKNCPSCRLRKCYEAGMTLGARKL [Y38H] | -0.231 ± 0.095
15 | QKTCLICGDEASGCHYGALTCGSCKVFFKRAAEGKQKSLCASRNDCTIDKFRRKNCPSCRLRKCYEAGMTLGARKL [Y38S] | -0.116 ± 0.061
16 | QKTCLICGDEASGCHYGALTCGSCKVFFKRAAEGKQKRLCASRNDCTIDKFRRKNCPSCRLRKCYEAGMTLGARKL [Y38R] | -0.239 ± 0.058
17 | QKTCLICGDEASGCHYGALTCGSCKVFFKRAAEGKQKGLCASRNDCTIDKFRRKNCPSCRLRKCYEAGMTLGARKL [Y38G] | -0.222 ± 0.064
18 | QKTCLICGDEASGCHYGALTCGSCKVFFKRAAEGKQKVLCASRNDCTIDKFRRKNCPSCRLRKCYEAGMTLGARKL [Y38V] | -0.092 ± 0.063

Row | Variant | abundance fitness
19 | QKTCLICGDEASGCHYGALTCGSCKVFFKRAAEGKQKLLCASRNDCTIDKFRRKNCPSCRLRKCYEAGMTLGARKL [Y38L] | -0.046 ± 0.049
20 | QKTCLICGDEASGCHYGALTCGSCKVFFKRAAEGKQKYDCASRNDCTIDKFRRKNCPSCRLRKCYEAGMTLGARKL [L39D] | -0.068 ± 0.047
21 | QKTCLICGDEASGCHYGALTCGSCKVFFKRAAEGKQKYECASRNDCTIDKFRRKNCPSCRLRKCYEAGMTLGARKL [L39E] | 0.054 ± 0.036
22 | QKTCLICGDEASGCHYGALTCGSCKVFFKRAAEGKQKYGCASRNDCTIDKFRRKNCPSCRLRKCYEAGMTLGARKL [L39G] | -0.009 ± 0.03
23 | QKTCLICGDEASGCHYGALTCGSCKVFFKRAAEGKQKYCCASRNDCTIDKFRRKNCPSCRLRKCYEAGMTLGARKL [L39C] | -0.069 ± 0.053
24 | QKTCLICGDEASGCHYGALTCGSCKVFFKRAAEGKYKYLCASRNDCTIDKFRRKNCPSCRLRKCYEAGMTLGARKL [Q36Y] | -0.189 ± 0.064
25 | QKTCLICGDEASGCHYGALTCGSCKVFFKRAAEGKRKYLCASRNDCTIDKFRRKNCPSCRLRKCYEAGMTLGARKL [Q36R] | -0.144 ± 0.051
26 | QKTCLICGDEASGCHYGALTCGSCKVFFKRAAEGKMKYLCASRNDCTIDKFRRKNCPSCRLRKCYEAGMTLGARKL [Q36M] | -0.084 ± 0.064
27 | QKTCLICGDEASGCHYGALTCGSCKVFFKRAAEGKFKYLCASRNDCTIDKFRRKNCPSCRLRKCYEAGMTLGARKL [Q36F] | -0.156 ± 0.066
28 | QKTCLICGDEASGCHYGALTCGSCKVFFKRAAEGKHKYLCASRNDCTIDKFRRKNCPSCRLRKCYEAGMTLGARKL [Q36H] | -0.01 ± 0.065
29 | QKTCLICGDEASGCHYGALTCGSCKVFFKRAAEGKNKYLCASRNDCTIDKFRRKNCPSCRLRKCYEAGMTLGARKL [Q36N] | -0.134 ± 0.075
30 | QKTCLICGDEASGCHYGALTCGSCKVFFKRAAEGKTKYLCASRNDCTIDKFRRKNCPSCRLRKCYEAGMTLGARKL [Q36T] | -0.173 ± 0.064
31 | QKTCLICGDEASGCHYGALTCGSCKVFFKRAAEGKLKYLCASRNDCTIDKFRRKNCPSCRLRKCYEAGMTLGARKL [Q36L] | -0.075 ± 0.036
32 | QKTCLICGDEASGCHYGALTCGSCKVFFKRAAEGKCKYLCASRNDCTIDKFRRKNCPSCRLRKCYEAGMTLGARKL [Q36C] | -0.2 ± 0.091
33 | QKTCLICGDEASGCHYGALTCGSCKVFFKRAAEGKGKYLCASRNDCTIDKFRRKNCPSCRLRKCYEAGMTLGARKL [Q36G] | 0.011 ± 0.056
34 | QKTCLICGDEASGCHYGALTCGSCKVFFKRAAEGKIKYLCASRNDCTIDKFRRKNCPSCRLRKCYEAGMTLGARKL [Q36I] | -0.197 ± 0.067
35 | QKTCLICGDEASGCHYGALTCGSCKVFFKRAAEGKSKYLCASRNDCTIDKFRRKNCPSCRLRKCYEAGMTLGARKL [Q36S] | -0.094 ± 0.041
36 | QKTCLICGDEASGCHYGALTCGSCKVFFKRAAEGKVKYLCASRNDCTIDKFRRKNCPSCRLRKCYEAGMTLGARKL [Q36V] | 0.065 ± 0.043
